B1: Ubiquitin-conjugating enzyme E2 R1 (Homo sapiens), P49427 (parent)
chain: MARPLVPSSQKALLLELKGLQEEPVEGFRVTLVDEGDLYNWEVAIFGPPNTYYEGGYFKARLKFPIDYPYSPPAFRFLTKMWHPNIYETGDVCISILHPPVDDPQSGELPSERWNPTQNVRTILLSVISLLNEPNTFSPANVDASVMYRKWKESKGKDREYTDIIRKQVLGTKVDAERDGVKVPTTLAEYCVKTKAPAPDEGSDLFYDDYYEDGEVEEEADSCFGDDEDDSGTEES

Variants of: B1
Details: with rbx1_human RBX1, P62877
Sequence of rbx1_human RBX1, P62877 (P62877 whole entry, looked up): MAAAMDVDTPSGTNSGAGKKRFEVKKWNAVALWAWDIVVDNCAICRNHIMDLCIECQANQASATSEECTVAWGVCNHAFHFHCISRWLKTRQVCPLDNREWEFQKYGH

Variant	effect of a mutation on the interaction
MARPLVPSSQKALLLELKGLQEEPVEGFRVTLVDEGDLYNWEVAIFGPPNTYYEGGYFKARLKFPIDYPYSPPAFRFLTKMWHPNIYETGDVCISILHPPVDDPQSGELPSERWNPEQNVRTILLSVISLLNEPNTFSPANVDASVMYRKWKESKGKDREYTDIIRKQVLGTKVDAERDGVKVPTTLAEYCVKTKAPAPDEGSDLFYDDYYEDGEVEEEADSCFGDDEDDSGTEES [T117E]	disrupting interaction strength
MARPLVPSSQKALLLELKGLQEEPVEGFRVTLVDEGDLYNWEVAIFGPPNTYYEGGYFKARLKFPIDYPRSPPAFRFLTKMWHPNIYETGDVCISILHPPVDDPQSGELPSERWNPTQNVRTILLSVISLLNEPNTFSPANVDASVMYRKWKESKGKDREYTDIIRKQVLGTKVDAERDGVKVPTTLAEYCVKTKAPAPDEGSDLFYDDYYEDGEVEEEADSCFGDDEDDSGTEES [Y70R]	disrupting interaction strength
